Paper PMC11285730 (Open Biology, 2024)

B1: B5-5 monomer (VHH)
VHH: QVQLVESGGGLVQPGGSLRLSCAVFGSTLDNYSVGWFRQLPGKEREGLACFSRRYGAPYYADSAKDRFTISRDNAKNTVDLQLNGLKPEDTAVYYCATRSGPYCTTSVSDFDDWGRGTQVTVSS
B2: A8 monomer (VHH)
VHH: QVQLVESGGGLVQAGGSLRLSCAASGGTFSTAAMGWFRQAPGEERECVASIGWRGVRTWYADSVKGRFTISRDNPQNTVYLQMNNLKSGDTAVYYCAASVGNYGLPWAHFEYDFWGQGIQVTVSS

Target: SARS-CoV-2 Wuhan RBD, de-glycosylated (SARS-CoV-2, UniProt P0DTC2)
Assay: crystal structure
Settings: both partners purified

Row | Binder | binding result
1 | B1 | binds
2 | B2 | binds
